From patent EP4471048A1, “PEPTIDE INHIBITORS OF INTERLEUKIN-23 RECEPTOR” (Zealand Pharma A/S, priority 2023, dated 2024)
Read-outs that look alike come from different tables or passages of the source. Blank lines part the entries; values can stand above or below the molecule they belong to. *1 amine or outer side, *2 acyl side, *3 side chain or, on linkers, in order; H or OH if unused. Bridges are numbered along the chain shown (N, C = ends). [ ]: non-standard residue; d: D form. The star is where a group is joined. 4‑Aminomethyl‑phenylacetyl = 4-aminomethyl-phenylacetyl unit, its amine closes the lactam, O=C(Cc1ccc(CN[*:1])cc1)[*:2]; γDab = iso-Dab: Dab joined to preceding residue by its side-chain amine, O=C([C@H](CCN[*:1])N[*:3])[*:2]; Q(pyrrolidin) = modified Gln, O=C(CC[C@H](N[*:1])C(=O)[*:2])N1CCCC1; 2‑Amino‑6‑carboxyhexanoyl = 2-aminoheptanedioic acid residue; Propanoyl(3-(3-pyridyl)) = O=C(CCc1cccnc1)*; NH(4-(3-pyridyl)butyl) = c1cncc(CCCCN*)c1; Phe(4-Me) = Cc1ccc(C[C@H](N)C(=O)O)cc1; 2Nal = N[C@@H](Cc1ccc2ccccc2c1)C(=O)O; AEF = NCCOc1ccc(C[C@H](N)C(=O)O)cc1; 3Pal = N[C@@H](Cc1cccnc1)C(=O)O; Aad = N[C@@H](CCCC(=O)O)C(=O)O; αMeL = CC(C)C[C@](C)(N)C(=O)O; dOrn = NCCC[C@@H](N)C(=O)O; dDab = NCC[C@@H](N)C(=O)O; Orn = NCCC[C@H](N)C(=O)O; Dab = NCC[C@H](N)C(=O)O

Experiments:
[1] = biological target: human IL-23R endogenously expressed on DB cells (human) (UniProt Q5VWK5); experiment: cell-based or functional assay
[2] = biological target: T1, human IL-23R endogenously expressed on DB cells (human, UniProt Q5VWK5 24-629); experiment: cell-based or functional assay
T1 sequence (looked up): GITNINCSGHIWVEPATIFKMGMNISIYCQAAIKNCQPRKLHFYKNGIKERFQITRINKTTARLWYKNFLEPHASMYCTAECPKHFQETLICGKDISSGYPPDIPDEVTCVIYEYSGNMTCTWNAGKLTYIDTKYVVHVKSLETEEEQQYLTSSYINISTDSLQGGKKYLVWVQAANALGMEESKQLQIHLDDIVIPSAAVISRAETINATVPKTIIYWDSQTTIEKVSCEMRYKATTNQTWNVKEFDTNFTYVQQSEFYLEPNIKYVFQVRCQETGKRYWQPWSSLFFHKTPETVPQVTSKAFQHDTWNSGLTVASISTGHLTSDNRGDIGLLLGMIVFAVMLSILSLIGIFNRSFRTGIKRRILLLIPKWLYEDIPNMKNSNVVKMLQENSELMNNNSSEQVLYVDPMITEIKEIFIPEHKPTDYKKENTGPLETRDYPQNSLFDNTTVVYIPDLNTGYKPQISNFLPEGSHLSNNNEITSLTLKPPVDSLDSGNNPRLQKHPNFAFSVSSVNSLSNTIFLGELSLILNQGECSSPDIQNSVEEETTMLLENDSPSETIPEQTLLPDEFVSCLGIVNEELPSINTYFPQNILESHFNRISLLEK

[3] = biological target: T2, Nluc-IL23R fusion protein (human, UniProt Q5VWK5 22-629); experiment: BRET competition vs TAMRA-labelled peptide, Nluc-IL23R membranes
T2 construct: range 22-629; Stably expressed in HEK293 cells; also called hIL-23R; human IL-23R; not shown: Nanoluc protein (N1371, Promega) at the N-terminus, after a secretion signal
T2 sequence (looked up): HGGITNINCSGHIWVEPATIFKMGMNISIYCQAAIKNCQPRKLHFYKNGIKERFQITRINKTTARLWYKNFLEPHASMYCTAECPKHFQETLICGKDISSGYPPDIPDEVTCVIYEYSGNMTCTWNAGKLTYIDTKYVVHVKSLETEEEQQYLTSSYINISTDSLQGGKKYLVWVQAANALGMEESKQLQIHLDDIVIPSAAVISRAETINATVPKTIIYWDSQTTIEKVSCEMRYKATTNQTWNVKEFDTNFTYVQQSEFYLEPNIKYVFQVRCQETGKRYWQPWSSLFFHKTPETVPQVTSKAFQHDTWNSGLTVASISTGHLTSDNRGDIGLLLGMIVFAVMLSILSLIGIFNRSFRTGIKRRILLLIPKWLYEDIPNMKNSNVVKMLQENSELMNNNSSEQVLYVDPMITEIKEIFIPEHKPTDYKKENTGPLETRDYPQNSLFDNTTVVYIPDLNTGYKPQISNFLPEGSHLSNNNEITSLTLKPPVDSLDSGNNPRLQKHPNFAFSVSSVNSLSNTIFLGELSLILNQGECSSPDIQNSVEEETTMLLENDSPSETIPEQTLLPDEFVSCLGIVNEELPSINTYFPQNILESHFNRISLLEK

[4] = biological target: T2, Nluc-IL23R fusion protein; experiment: as above; remark: listed apart in the source
[5] = biological target: T2, Nluc-IL23R fusion protein; experiment: BRET competition vs TAMRA-labelled peptide, Nluc-IL23R membranes; Ki by Cheng-Prusoff

EC80 of hIL-23 (phospho-STAT3 in DB cells) [1]: 1.7 nM
Molecule: human IL-23 (from UniProt Q9NPF7 20-189; P29460 23-328) (ligand)

hIL-23 (pSTAT3) antagonist % inhibition [2]: 99%
hIL-23 (pSTAT3) antagonist IC50 [2]: 100 nM
% displacement [3]: 96%
IC50 [3]: 280 nM
B1: Compound 24 (peptide)
peptide: KTVWQE[Phe(4-Me)][2Nal][αMeL][γDab](Propanoyl(3-(3-pyridyl)))
modifications: lactam 1-C, N-6; also: iso-Dab joined to preceding residue via its side-chain amine

hIL-23 (pSTAT3) antagonist % inhibition [2]: 104%
hIL-23 (pSTAT3) antagonist IC50 [2]: 0.22 nM
% displacement [3]: 104%
B2: Compound 6 (peptide)
peptide: [dOrn]TVWQE[AEF][2Nal][αMeL][Aad][Dab][3Pal]-NH2
modifications: lactam 1-10, N-6
SMILES: CC(C)C[C@]1(C)NC(=O)[C@H](Cc2ccc3ccccc3c2)NC(=O)[C@H](Cc2ccc(OCCN)cc2)NC(=O)[C@@H]2CCC(=O)N[C@H](CCCNC(=O)CCC[C@@H](C(=O)N[C@@H](CCN)C(=O)N[C@@H](Cc3cccnc3)C(N)=O)NC1=O)C(=O)N[C@@H]([C@@H](C)O)C(=O)N[C@@H](C(C)C)C(=O)N[C@@H](Cc1c[nH]c3ccccc13)C(=O)N[C@@H](CCC(N)=O)C(=O)N2

hIL-23 (pSTAT3) antagonist % inhibition [2]: 99%
hIL-23 (pSTAT3) antagonist IC50 [2]: 13 nM
% displacement [3]: 102%
B3: Compound C (peptide)
peptide: XQTWQCXWXENG
modifications: [Ac]-[Abu](16i)QTWQC(16i)[Y(2-aminoethoxy)]W[2-Me-Lys]ENG-[NH2]; (16i) [2,7] thioether bridge (Abu and Cys form a cystathionine)

% displacement [3]: 100%
Molecule: ETWQE[AEF][2Nal][αMeL][Orn][Dab][3Pal]-NHMe (lactam 1-9, N-5) [Compound 40]

hIL-23 (pSTAT3) antagonist % inhibition [2]: 98%
hIL-23 (pSTAT3) antagonist IC50 [2]: 42 nM
% displacement [4]: 105%
IC50 [4]: 1.2 nM
Ki [5]: 1.01 nM
Molecule: [4‑Aminomethyl‑phenylacetyl]SEW[Q(pyrrolidin)][Dab][AEF][2Nal][αMeL]E[Dab]-NH2 (lactam N-10; bridge 3-6; also: (2c) bridge type not defined) [Ref 146]

% displacement [3]: 98%
IC50 [3]: 49 nM
B4: Compound 31 (peptide)
peptide: KSVWQE[AEF][2Nal]GE-{NH(4-(3-pyridyl)butyl)}
modifications: lactam 1-10, N-6
SMILES: CC(C)[C@@H]1NC(=O)[C@H](CO)NC(=O)[C@@H]2CCCCNC(=O)CC[C@@H](C(=O)NCCCCc3cccnc3)NC(=O)CNC(=O)[C@H](Cc3ccc4ccccc4c3)NC(=O)[C@H](Cc3ccc(OCCN)cc3)NC(=O)[C@H](CCC(=O)N2)NC(=O)[C@H](CCC(N)=O)NC(=O)[C@H](Cc2c[nH]c3ccccc23)NC1=O

hIL-23 (pSTAT3) antagonist % inhibition [2]: 99%
hIL-23 (pSTAT3) antagonist IC50 [2]: 0.19 nM
% displacement [3]: 104%
Molecule: [dDab]TVWQE[AEF][2Nal][αMeL][2‑Amino‑6‑carboxyhexanoyl][Dab][3Pal]-NH2 (lactam 1-10, N-6) [Compound 7]
